Data taken from patent publication US20200247901A1 (US Dept. of Health and Human Services, published 2020).

B1: 15B6 anti-mesothelin antibody (IgG2b) (antibody, V domains shown)
VH: EVQLQQSGPVLVKPGASVKISCKASGYSFTGYYMHWVRQSLVKRLEWIGRINPYTGVPSYKHNFKDKASLTVDKSSSTAYMELHSLTSEDSAVYYCARELGGYWGQGTTLTVSS
VL: QAVVTQESALTTSPGETVTLTCRSSTGAVTTGNYPNWVQEKPDHLFTGLIAGTNNRAPGVPARFSGSLIGDKAALTITGAQTEDEAIYFCALWFSSHWVFGGGTKLTVL
notes: Mouse hybridoma monoclonal antibody, IgG 2b; also called Mab 15B6; antibody 15B6
B2: 2B4 anti-mesothelin antibody (IgG2a) (antibody, V domains shown)
VH: EVQLQQSGPELVKPGASVKISCKASGYPFTGHYMHWVKQGHVKSLEWIGRINPYTGAINYNQNFKDKASLSVEKSSSTAYMGLHSLTSEDSAVYYCVRDLGGGYWGQGTTLTVSS
VL: QAVVTQESALTTSPGETVTLTCRSSTGAVTTSNYANWVQEKPDHLFTGLIAGTNNRAPGVPARFSGSLIGDKAALTITGAQPEDEAIFFCALWYSSHWVFGGGTKLTVL
notes: Mouse hybridoma monoclonal antibody, IgG 2a; also called antibody 2B4
B3: 7B5 anti-mesothelin antibody (IgG1) (antibody, V domains shown)
VH: EVQLQQSGPELVKPGTSVKISCKASGYPFTGHYMHWVKQGHVKSLEWIGRINPYTGAINYNQNFKDKASLTVEKSSSTAYMGLHSLTSEDSAVYYCVRDLGGGYWGQGTTLTVSS
VL: QAVVTQESALTTSPGETVTLTCRSSTGAVTTSNYANWVQEKPDHLFTGLIAGTNNRAPGVPARFSGSLIGDKAALTITGAQPEDEAMFFCALWFGSHWVFGGGTKLTVL
notes: Mouse hybridoma monoclonal antibody, IgG 1; also called antibody 7B5

How the values were obtained:
[1] = target: B1; test: competition ELISA, antibody 30 ng/ml on coated MSLN-Fc, peptide titrated
Description: (§1) A competition assay was completed using the following peptides: peptide 1 having the sequence CLVLDLSMQEALS (SEQ ID NO: 61) and peptide 2 having the sequence CSMQEALS (SEQ ID NO: 62). An ELISA plate was coated with MSLN(M)-Fc or MSLN(V)-Fc. After overnight incubation, the plates were blocked and washed. The anti-mesothelin stalk antibodies of Example 1 (30 ng/ml) and peptide 1 or peptide 2 were added at different concentrations (100 micrograms/ml to 0.00001 micrograms/ml). After washing, anti-mouse IgG-HRP conjugate were added. The OD was then measured with ELISA.

[2] = target: B3; test: as above
Description: as §1

[3] = target: B2; test: as above
Description: as §1

[4] = target: T1, mesothelin (296-585) attached to mouse transferrin receptor (TFR) transmembrane domain, on AB1-L9 cells (human; mouse, UniProt Q13421 296-585); test: binding to transfected AB1-L9 cells
T1 construct: The order of the parts is as printed; also called AB1-L9 cell line
T1 sequence (Q13421 other isoform, or with tags, fused parts or gaps): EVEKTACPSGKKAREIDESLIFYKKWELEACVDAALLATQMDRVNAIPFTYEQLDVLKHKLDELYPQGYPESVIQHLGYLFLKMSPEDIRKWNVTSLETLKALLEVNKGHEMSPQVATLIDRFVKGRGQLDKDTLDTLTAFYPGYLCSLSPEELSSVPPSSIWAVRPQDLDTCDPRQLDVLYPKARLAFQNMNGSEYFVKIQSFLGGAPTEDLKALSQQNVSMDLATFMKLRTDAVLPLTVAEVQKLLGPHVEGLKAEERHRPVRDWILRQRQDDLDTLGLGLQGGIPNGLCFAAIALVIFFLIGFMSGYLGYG

Fc-mesothelin 296-599 = target: T2, Fc-mesothelin 296-599 (human, UniProt Q13421 296-599); test: ELISA on Fc-mesothelin 296-599
T2 construct: The order of the parts follows the printed name and is not otherwise stated; not shown: Fc part
T2 sequence (Q13421 other isoform, or with tags, fused parts or gaps): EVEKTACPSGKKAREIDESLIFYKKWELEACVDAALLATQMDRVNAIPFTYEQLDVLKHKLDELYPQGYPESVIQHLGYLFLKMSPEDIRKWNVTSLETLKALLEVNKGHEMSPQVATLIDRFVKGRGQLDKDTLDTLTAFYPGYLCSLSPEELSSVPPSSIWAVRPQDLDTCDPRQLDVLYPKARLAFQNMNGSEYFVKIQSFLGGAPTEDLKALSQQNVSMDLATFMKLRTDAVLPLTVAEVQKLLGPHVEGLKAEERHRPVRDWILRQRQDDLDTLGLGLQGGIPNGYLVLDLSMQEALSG

Binder | binding result [1] | binding result [2] | binding result [3] | binding result [4] | binding result (Fc-mesothelin 296-599)
CLVLDLSMQEALS (Mesothelin 587-598 with an added N-terminal cysteine) [peptide 1 (CLVLDLSMQEALS)] | binds | binds | binds | – | –
B1 | – | – | – | no binding | binds
B2 | – | – | – | no binding | binds
B3 | – | – | – | no binding | binds
CSMQEALS (Mesothelin 592-598 with an added N-terminal cysteine) [peptide 2 (CSMQEALS)] | no binding | no binding | no binding | – | –
